Data set [1] concerns the target AsCas12f1 (Acidibacillus sulfuroxidans Cas12f1) (Acidibacillus sulfuroxidans). The data set can be described thus: mass photometry; ternary complex with gRNA and dsDNA target; 200 nM Cas12f1 RNP and 25 nM DNA in binding buffer (40 mM Tris-HAc pH 8.4, 5 mM Mg acetate), 30 min at 45 °C, then diluted 1:10.
Data set [2] shares this target. The data set can be described thus: mass photometry; binary complex with gRNA; 1 µM Cas12f1 protein and 500 nM gRNA in complex assembly buffer (10 mM Tris-HCl pH 7.5, 100 mM NaCl, 1 mM EDTA, 1 mM DTT), 30 min at 37 °C, then diluted 1:10.
Data set [3] concerns the molecule itself. The description is as above.
Data set [4] deals with T1, dSpCas12f1 (Syntrophomonas palmitatica, UniProt P0DW62 1-497, D228A).
T1 sequence: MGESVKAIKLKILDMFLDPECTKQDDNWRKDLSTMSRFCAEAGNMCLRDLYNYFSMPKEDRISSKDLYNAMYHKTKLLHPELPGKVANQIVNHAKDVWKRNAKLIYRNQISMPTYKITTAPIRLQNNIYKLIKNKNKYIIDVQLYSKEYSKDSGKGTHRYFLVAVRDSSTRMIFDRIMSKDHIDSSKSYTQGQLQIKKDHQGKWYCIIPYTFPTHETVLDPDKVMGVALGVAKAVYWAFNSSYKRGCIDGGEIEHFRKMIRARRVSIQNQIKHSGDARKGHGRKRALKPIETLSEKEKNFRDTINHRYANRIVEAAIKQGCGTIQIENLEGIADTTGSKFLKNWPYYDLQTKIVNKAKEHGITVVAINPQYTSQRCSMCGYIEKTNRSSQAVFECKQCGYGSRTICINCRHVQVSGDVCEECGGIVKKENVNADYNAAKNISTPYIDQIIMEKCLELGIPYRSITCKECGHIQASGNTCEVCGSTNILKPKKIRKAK
The data set can be described thus: mass photometry; ternary 2:1:1, 5 mM Mg2+, incubated at 45 C; EMSA: 40 mM Tris, 20 mM acetic acid pH 8.4, 1 mM EDTA, 0.1 mg/ml BSA, 10% glycerol, 5 mM Mg acetate, 1 nM DNA, 0-250 nM RNP, 30 min at room temperature or as indicated. Mass photometry: binary in 10 mM Tris-HCl pH 7.5, 100 mM NaCl, 1 mM EDTA, 1 mM DTT, 37 C; ternary in 40 mM Tris-acetate pH 8.4, 5 mM Mg acetate, 45 C. To be noted: protein: recombinant; tags: 10xHis-MBP-TEV tag removed; chain copies: 2; label: 32P 5'-end in EMSA; guide RNA + DNA duplex. In general terms: A gel shift assay detects complexes by their altered migration in electrophoresis.

Data set [5] concerns the target T1, dSpCas12f1. The data set can be described thus: EMSA; 5 mM Mg2+, room temperature; EMSA: 40 mM Tris, 20 mM acetic acid pH 8.4, 1 mM EDTA, 0.1 mg/ml BSA, 10% glycerol, 5 mM Mg acetate, 1 nM DNA, 0-250 nM RNP, 30 min at room temperature or as indicated. Mass photometry: binary in 10 mM Tris-HCl pH 7.5, 100 mM NaCl, 1 mM EDTA, 1 mM DTT, 37 C; ternary in 40 mM Tris-acetate pH 8.4, 5 mM Mg acetate, 45 C. To be noted: protein: recombinant; tags: 10xHis-MBP-TEV tag removed; chain copies: 2; label: 32P 5'-end; guide RNA + ssDNA.

The target of data set [6] is T2, dAsCas12f1 (Acidibacillus sulfuroxidans, UniProt A0A2U3D0N8 1-422, D225A).
T2 sequence: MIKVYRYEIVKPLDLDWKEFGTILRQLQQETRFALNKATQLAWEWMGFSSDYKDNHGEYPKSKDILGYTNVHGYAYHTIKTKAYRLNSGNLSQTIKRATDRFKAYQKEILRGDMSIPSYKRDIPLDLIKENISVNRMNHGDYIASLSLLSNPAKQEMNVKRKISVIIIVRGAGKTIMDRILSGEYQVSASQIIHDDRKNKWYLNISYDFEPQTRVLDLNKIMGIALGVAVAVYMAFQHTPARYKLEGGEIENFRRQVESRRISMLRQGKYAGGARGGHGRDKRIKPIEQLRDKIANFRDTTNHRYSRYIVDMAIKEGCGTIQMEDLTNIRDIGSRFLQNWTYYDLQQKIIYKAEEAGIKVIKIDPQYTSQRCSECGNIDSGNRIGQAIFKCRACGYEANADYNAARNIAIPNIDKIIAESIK
The data set can be described thus: mass photometry; ternary 2:1:1, 5 mM Mg2+, incubated at 45 C; EMSA: 40 mM Tris, 20 mM acetic acid pH 8.4, 1 mM EDTA, 0.1 mg/ml BSA, 10% glycerol, 5 mM Mg acetate, 1 nM DNA, 0-250 nM RNP, 30 min at room temperature or as indicated. Mass photometry: binary in 10 mM Tris-HCl pH 7.5, 100 mM NaCl, 1 mM EDTA, 1 mM DTT, 37 C; ternary in 40 mM Tris-acetate pH 8.4, 5 mM Mg acetate, 45 C. To be noted: protein: recombinant; tags: 10xHis-MBP-TEV tag removed; chain copies: 2; label: 32P 5'-end in EMSA; guide RNA + DNA duplex.

The target in data set [7] is T2, dAsCas12f1. The data set can be described thus: EMSA; 5 mM Mg2+, room temperature; EMSA: 40 mM Tris, 20 mM acetic acid pH 8.4, 1 mM EDTA, 0.1 mg/ml BSA, 10% glycerol, 5 mM Mg acetate, 1 nM DNA, 0-250 nM RNP, 30 min at room temperature or as indicated. Mass photometry: binary in 10 mM Tris-HCl pH 7.5, 100 mM NaCl, 1 mM EDTA, 1 mM DTT, 37 C; ternary in 40 mM Tris-acetate pH 8.4, 5 mM Mg acetate, 45 C. To be noted: protein: recombinant; tags: 10xHis-MBP-TEV tag removed; chain copies: 2; label: 32P 5'-end; guide RNA + ssDNA.

Data set [8] concerns the target T1, dSpCas12f1. Put plainly: mass photometry; binary complex 179 kDa, 2:1 protein:gRNA; EMSA: 40 mM Tris, 20 mM acetic acid pH 8.4, 1 mM EDTA, 0.1 mg/ml BSA, 10% glycerol, 5 mM Mg acetate, 1 nM DNA, 0-250 nM RNP, 30 min at room temperature or as indicated. Mass photometry: binary in 10 mM Tris-HCl pH 7.5, 100 mM NaCl, 1 mM EDTA, 1 mM DTT, 37 C; ternary in 40 mM Tris-acetate pH 8.4, 5 mM Mg acetate, 45 C. To be noted: protein: recombinant; tags: 10xHis-MBP-TEV tag removed; chain copies: 2; single chain, folded.

The values below come from article PMC8548392, “Miniature type V-F CRISPR-Cas nucleases enable targeted DNA modification in cells” (Nature Communications, 2021).

One may read the stoichiometry N as the number of molecules, sites or subunits per partner or assembly. As to “AsCas12f1 (Acidibacillus sulfuroxidans Cas12f1) (from UniProt A0A2U3D0N8 1-422) (enzyme)”, the stoichiometry N in data set [1] and in data set [2] was 2 throughout.

B1: Nuclease inactivated or dead (d) SpCas12f1 (D228A) (enzyme, Syntrophomonas palmitatica, UniProt P0DW62 1-497, looked up)
chain: MGESVKAIKLKILDMFLDPECTKQDDNWRKDLSTMSRFCAEAGNMCLRDLYNYFSMPKEDRISSKDLYNAMYHKTKLLHPELPGKVANQIVNHAKDVWKRNAKLIYRNQISMPTYKITTAPIRLQNNIYKLIKNKNKYIIDVQLYSKEYSKDSGKGTHRYFLVAVRDSSTRMIFDRIMSKDHIDSSKSYTQGQLQIKKDHQGKWYCIIPYTFPTHETVLDPDKVMGVALGVAKAVYWAFNSSYKRGCIDGGEIEHFRKMIRARRVSIQNQIKHSGDARKGHGRKRALKPIETLSEKEKNFRDTINHRYANRIVEAAIKQGCGTIQIENLEGIADTTGSKFLKNWPYYDLQTKIVNKAKEHGITVVAINPQYTSQRCSMCGYIEKTNRSSQAVFECKQCGYGSRTICINCRHVQVSGDVCEECGGIVKKENVNADYNAAKNISTPYIDQIIMEKCLELGIPYRSITCKECGHIQASGNTCEVCGSTNILKPKKIRKAK
notes: SpCas12f1, type V-F CRISPR-Cas nuclease of Syntrophomonas palmitatica, 497 aa, with D228A in the RuvC active site; The tag was removed at a TEV site (ENLYFQS), so a residue of the site may remain at the N-terminus; also called dCas12f1; source: E. coli Arctic Express (DE3), purified (Ni2+ HiTrap chelating, heparin, TEV cleavage, heparin); not shown: 10xHis, N-terminal, cleaved; MBP, N-terminal, …
As for B1, the “stoichiometry N” value in data set [3] stood at 2.

B2: Sp sgRNA (18 nt spacer) + dsDNA target with PAM (mixed)
DNA 1: GCACCTTACTGCAAGGTAGCCACGTTCAGTTGACCCAACGTCGCCGGCGTGCACAATCTAGATGCATCAGCTGC
DNA 2: GCAGCTGATGCATCTAGATTGTGCACGCCGGCGACGTTGGGTCAACTGAACGTGGCTACCTTGCAGTAAGGTGC
Turning to B2, the binding result in the data set with dSpCas12f1 [4] is “binds”.

B3: Sp sgRNA (18 nt spacer) + ssDNA target strand (mixed)
DNA: GCAGCTGATGCATCTAGATTGTGCACGCCGGCGACGTTGGGTCAACTGAACGTGGCTACCTTGCAGTAAGGTGC
In the case of B3, in the data set with dSpCas12f1 [5], the binding result was “binds”.

B4: As sgRNA + dsDNA target with PAM (mixed)
DNA 1: GCACCTTACTGCAAGGTAGCGTATTTAAGTTGACCCAACGTCGCCGGCGTGCACAATCTAGATGCATCAGCTGC
DNA 2: GCAGCTGATGCATCTAGATTGTGCACGCCGGCGACGTTGGGTCAACTTAAATACGCTACCTTGCAGTAAGGTGC
For B4, the binding result with dAsCas12f1 [6] is “binds”.

B5: As sgRNA + ssDNA target strand (mixed)
DNA: GCAGCTGATGCATCTAGATTGTGCACGCCGGCGACGTTGGGTCAACTTAAATACGCTACCTTGCAGTAAGGTGC
For B5, in the data set with dAsCas12f1 [7], the binding result is reported as “binds”.

B6: SpCas12f1 sgRNA T1, 18 nt spacer (structured_RNA)
RNA: GGGAUUUACUCUGUUUCGCGCGCCAGGGCAGUUAGGUGCCCUAAAAGAGCGAAGUGGCCGAAAGGAAAGGCUAACGCUUCUCUAACGCUACGGCGACCUUGGCGAAAUGCCAUCAAUACCACGCGGCCCGAAAGGGUUCGCGCGAAACUGAGUAAUGAAAGUCGCAUCUUGCGUAAGCGCGUGGAUUGAAACAGUUGACCCAACGUCGCC
For B6, the binding result with dSpCas12f1 [8] is “binds”.
